The results in this text go back to paper PMC6270800, “The Effect of Mini-PEG-Based Spacer Length on Binding and Pharmacokinetic Properties of a ^68Ga-Labeled NOTA-Conjugated Antagonistic Analog of Bombesin” (Molecules, 2014).

The format of data set [1] is physicochemical. The settings on record: pH 7.4. The protocol:
Aliquots of 50 μL were taken from each phase, and their radioactivity was measured in an automated gamma-counter with 3-inch NaI(Tl) detector (1480 WIZARD, Wallac OyTurku, Finland). Each measurement was repeated nine times. The distribution coefficient was calculated as the average log of a ratio of the radioactivity in the octanol and the PBS fractions.

Another data set has as its system BT-474 xenografts. Format: in vivo, BALB/c nu/nu mice. The settings on record: BT-474 tumors; 2 h p.i. As to the method: (§1) To study tumor targeting, female BALB/c nu/nu mice bearing PC-3 and BT-474 xenografts (4 mice per data point) were intravenously injected with 45 pmol of ^68Ga-NOTA-PEG3-RM26 (700 kBq, 100 µL in PBS). The mice were euthanized at 2 h p.i. and the organ radioactivity content was measured and evaluated as described above. To test the in vivo binding specificity, a group of animals was co-injected with 20 nmol of unlabeled peptide, and biodistribution was measured at 2 h p.i.

Another data set relates to PC-3 xenografts. Format: in vivo, BALB/c nu/nu mice. The settings on record: PC-3 tumors; 2 h p.i. As to the method:
as §1

The test system of another data set is PC-3 cells. Kind of data set: Cellular uptake and internalization assay, PC-3 cells. Format: cell-based, human. The settings on record: ^111In-labeled, 24 h continuous incubation, 2 nM, 37 °C. As to the method:
(§2) GRPR expressing human PC cell line PC-3 and human BC cell line BT-474 (ATCC) were cultured in RPMI media complemented with 10% FBS, 2 mM L-glutamine and PEST (penicillin 100 IU/mL) (all from Biochrom AG, Berlin, Germany). This media is referred as complete media in the text. In all in vitro experiments, cells were incubated in complete medium and detached using trypsin-EDTA solution (0.25% trypsin, 0.02% EDTA in buffer; Biochrom AG). All experiments were performed in triplicate and 1 × 10^6 cells/dish were seeded one day before the experiment.
(§3) At predetermined time points, the incubation media was discarded, the cells were washed and the membrane-bound and internalized radioactivity were collected using the method described earlier.

The nature of another data set: in vivo. The settings on record: female, NMRI, mouse, iv, 45 pmol, total radioactivity.
The test system of the next data set is BT-474 cells. Kind of data set: Cellular uptake and internalization assay, BT-474 cells. Format: cell-based, human. The settings on record: ^111In-labeled; BT474 cells; 24 h continuous incubation, 2 nM, 37 °C. As to the method:
as §2, §3

Description for in vivo: The biodistribution of ^68Ga-labeled NOTA-PEGn-RM26 was evaluated in female NMRI mice (weight: 30 ± 3 g).
Female NMRI mice (3 mice per data point) were injected with 45 pmol of ^68Ga-NOTA-PEGn-RM26 (350 or 700 kBq, 100 µL in PBS) into the tail vein. The administrated peptide dose was adjusted to 45 pmol by dilution with non-labeled NOTA-PEGn-RM26. The mice were euthanized at 1 and 2 h p.i. by intraperitoneal injection of a Ketalar-Rompun solution (10 mg/mL Ketalar and 1 mg/mL Rompun; 20 µL of solution per gram of body weight). Blood samples were collected by heart puncture. The organs of interest were collected, weighed, and their radioactivity content was measured in the gamma-counter. The organ uptake values are expressed as %ID/g except for gastrointestinal (GI) tract (with content) and carcass in which data are presented as %ID per whole sample.

With `CC(C)C[C@H](NC(=O)C[C@H](O)[C@H](CC(C)C)NC(=O)[C@H](Cc1c[nH]cn1)NC(=O)CNC(=O)[C@@H](NC(=O)[C@H](C)NC(=O)[C@H](Cc1c[nH]c2ccccc12)NC(=O)[C@H](CCC(N)=O)NC(=O)[C@@H](Cc1ccccc1)NC(=O)CCOCCOCCOCCOCCOCCOCCNC(=O)CN1CCN(CC(=O)O)CCN(CC(=O)O)CC1)C(C)C)C(N)=O` [^68Ga-NOTA-PEG6-RM26, metal not drawn], the logD in data set [1] was -2.5 ± 0.09.
On to `CC(C)C[C@H](NC(=O)C[C@H](O)[C@H](CC(C)C)NC(=O)[C@H](Cc1c[nH]cn1)NC(=O)CNC(=O)[C@@H](NC(=O)[C@H](C)NC(=O)[C@H](Cc1c[nH]c2ccccc12)NC(=O)[C@H](CCC(N)=O)NC(=O)[C@@H](Cc1ccccc1)NC(=O)CCOCCOCCOCCNC(=O)CN1CCN(CC(=O)O)CCN(CC(=O)O)CC1)C(C)C)C(N)=O` [^68Ga-NOTA-PEG3-RM26, metal not drawn], for which the entries for the “Decrease of tumor uptake by co-injection of non-labeled peptide” value with BT-474 xenografts and in the data set on PC-3 xenografts were “more than 7 fold” and approximately 5 fold, respectively.
On to `CC(C)C[C@H](NC(=O)C[C@H](O)[C@H](CC(C)C)NC(=O)[C@H](Cc1c[nH]cn1)NC(=O)CNC(=O)[C@@H](NC(=O)[C@H](C)NC(=O)[C@H](Cc1c[nH]c2ccccc12)NC(=O)[C@H](CCC(N)=O)NC(=O)[C@@H](Cc1ccccc1)NC(=O)CCOCCOCCOCCOCCOCCOCCNC(=O)CN1CCN(CC(=O)O)CCN(CC(=O)O)CC1)C(C)C)C(N)=O` [PEG6], for which the “LogD of ^68Ga-NOTA-PEGn-RM26” value in data set [1] is reported as −2.50 ± 0.09. Besides, the “Internalization rate, % internalized radioactivity from total cell associated” value with PC-3 cells is 35 ± 2%. For the same molecule, the tissue uptake dose at 1 h turned out to be 2.8 ± 0.2 %ID in the data set “in vivo” (Uptake in GI (with content)) and 3 ± 1 %ID in the data set “in vivo” (Uptake in carcass). Further, the tissue uptake dose at 2 h in the data set “in vivo” (Uptake in GI (with content)) was found to be 1.8 ± 0.5 %ID; in the data set “in vivo” (Uptake in carcass) it was 0.71 ± 0.05 %ID.
As to `CC(C)C[C@H](NC(=O)C[C@H](O)[C@H](CC(C)C)NC(=O)[C@H](Cc1c[nH]cn1)NC(=O)CNC(=O)[C@@H](NC(=O)[C@H](C)NC(=O)[C@H](Cc1c[nH]c2ccccc12)NC(=O)[C@H](CCC(N)=O)NC(=O)[C@@H](Cc1ccccc1)NC(=O)CCOCCOCCOCCNC(=O)CN1CCN(CC(=O)O)CCN(CC(=O)O)CC1)C(C)C)C(N)=O` [PEG3], the logD in data set [1] was -2.47 ± 0.06. Further, the “Internalization rate, % internalized radioactivity from total cell associated” value with PC-3 cells is 31 ± 2%; with BT-474 cells, 32 ± 2%. For the same molecule, the results for the tissue uptake dose at 1 h in “in vivo” (Uptake in GI (with content)) and in “in vivo” (Uptake in carcass) were 3.7 ± 0.8 %ID and 2.1 ± 0.4 %ID, respectively. In addition, the tissue uptake dose at 2 h was determined as 2.5 ± 0.7 %ID in the data set “in vivo” (Uptake in GI (with content)) and 0.7 ± 0.1 %ID in the data set “in vivo” (Uptake in carcass).
For `CC(C)C[C@H](NC(=O)C[C@H](O)[C@H](CC(C)C)NC(=O)[C@H](Cc1c[nH]cn1)NC(=O)CNC(=O)[C@@H](NC(=O)[C@H](C)NC(=O)[C@H](Cc1c[nH]c2ccccc12)NC(=O)[C@H](CCC(N)=O)NC(=O)[C@@H](Cc1ccccc1)NC(=O)COCCOCCNC(=O)CN1CCN(CC(=O)O)CCN(CC(=O)O)CC1)C(C)C)C(N)=O` [PEG2], the “LogD of ^68Ga-NOTA-PEGn-RM26” value in data set [1] is on record as −2.27 ± 0.07. In “in vivo” (Uptake in GI (with content)), the tissue uptake dose at 1 h was determined as 4 ± 2 %ID and the tissue uptake dose at 2 h is 2.88 ± 0.06 %ID. For the same molecule, in the data set “in vivo” (Uptake in carcass), the tissue uptake dose at 1 h amounted to 4 ± 1 %ID and the tissue uptake dose at 2 h was found to be 0.9 ± 0.4 %ID.
`CC(C)C[C@H](NC(=O)C[C@H](O)[C@H](CC(C)C)NC(=O)[C@H](Cc1c[nH]cn1)NC(=O)CNC(=O)[C@@H](NC(=O)[C@H](C)NC(=O)[C@H](Cc1c[nH]c2ccccc12)NC(=O)[C@H](CCC(N)=O)NC(=O)[C@@H](Cc1ccccc1)NC(=O)COCCOCCNC(=O)CN1CCN(CC(=O)O)CCN(CC(=O)O)CC1)C(C)C)C(N)=O` [^68Ga-NOTA-PEG2-RM26, metal not drawn] displayed a logD in data set [1] of -2.27 ± 0.07.
`CC(C)C[C@H](NC(=O)C[C@H](O)[C@H](CC(C)C)NC(=O)[C@H](Cc1c[nH]cn1)NC(=O)CNC(=O)[C@@H](NC(=O)[C@H](C)NC(=O)[C@H](Cc1c[nH]c2ccccc12)NC(=O)[C@H](CCC(N)=O)NC(=O)[C@@H](Cc1ccccc1)NC(=O)CCOCCOCCOCCOCCNC(=O)CN1CCN(CC(=O)O)CCN(CC(=O)O)CC1)C(C)C)C(N)=O` [PEG4]: in data set [1], the logD was -2.49 ± 0.1. In the data set “in vivo” (Uptake in GI (with content)), the tissue uptake dose at 1 h was determined as 3.5 ± 0.6 %ID and the tissue uptake dose at 2 h came out at 3.1 ± 0.9 %ID. Besides, in “in vivo” (Uptake in carcass), the tissue uptake dose at 1 h is 2.3 ± 0.5 %ID and the tissue uptake dose at 2 h amounted to 1.2 ± 0.3 %ID.
